# Measured values as given in the nanobody polyreactivity screen of Harvey et al. (2022).
# Assay: yeast display, Sf9 membrane polyspecificity reagent, FACS + sequencing; frameworks hold sequencing errors
# Outline: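 Polyreactivity labels are assigned by the sorting gate from which each nanobody was recovered. The gates were low and high (top ~1%), set on anti-HA fluorescence for expression and streptavidin fluorescence for reagent binding. Before sorting, galactose-induced (36–48 hours) yeast display cells were stained for 1 hour at 4 °C with 10% biotinylated, detergent-solubilized Sf9 membrane reagent.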
row,Sequence,polyreactivity (PSR sort gate)
1,QVQLVESGGGLVQAGGSLRLSCAASGMTFTSNVLGWYRQAHGKERELVAAISSGGSTYDADSVKGRFTMSRDNAKNTVYLQMNSLKPEDTAVYYCNSKLWGQYDYWGQGTQVTVSS,low polyreactivity
2,QVQLVESGGGLVQAGGSLRLSCAASGMTFWSYAMGWYRQAPGKDRELVAAITIGGTTYYADSVKGRFTISRDNAKNTVYLQMNSLKPEDTAVYYCAVDSTDQAPPTYDYWGQGTQVTVSS,low polyreactivity
3,QVQLVESGGGLVQAGGSLRLSCAASGMTLGSYAMGWDRQAPGKERELVAAISRRSGRTYYADSVKGRFTISRDNAKNTVYLKMNSLKPEDTAVFYCNRGYTAQVYTEFDDWGQGTQVTVSS,low polyreactivity
4,QVQLVESGGGLVQAGGSLRLSCAASGNIFADYVMGWYRQAPGKERELVAAIDKSGGRTYYADSVKGRFTISRDNEKNNVYLQMNILKPEDTAVYYCSAYDRYRRMDYWGQGTQVTVSS,high polyreactivity
5,QVQLVESGGGLVQAGGSLRLSCAASGNIFAFYAMGWYRQAPGKERELVADISWSGASTYYADSVKGRFTISRDNAKNTVYLQMNSLKPEDTAVYYCAAYATYYVIFYGDEYWGQGTQVTVSS,high polyreactivity
6,QVQLVESGGGLVQAGGSLRLSCAASGNIFAINAMGWYRQAPGKERELVAAITWSSARTYYADSVKGRFTISRDNAKNTVYLQMNSLKPEDTAVYYCNAPALFEYDYWGQGTQVTVSS,high polyreactivity
7,QVQLVESGGGLVQAGGSLRLSCAASGNIFAWYAMGWYRQAPGKERELVADISSRGGSTYYADSVKGRFTISRDNAKNTVYLQMNSLKPEDTAVYYCAAVWYWTQDYDYWGRGTQVTVSS,low polyreactivity
8,QVQLVESGGGLVQAGGSLRLSCAASGNIFDAYGMGWNRQAPGKETELVAAIDWTGGSTYYADSVKGRFTISRDNAKNTVYLQMNSLKPEDTAVYYCAADWGGGYQQYGNDWVNYWGQGTQVTVSS,low polyreactivity
9,QVQLVESGGGLVQAGGSLRLSCAASGNIFDHYAMGWYRQAPGKERELVASITDSGDSTSYADSVKGRFTISRDNAKNTVYLQMNSLKPEDTAVYYCAADPYSVYGGDYWGQGTQVTVSS,low polyreactivity
10,QVQLVESGGGLVQAGGSLRLSCAASGNIFDLYARGWSRQAPGKERELVAAISASGGRTYYADSVKGRFTISRDNAKNTVYLQMNSLKPEDTAVYYCAAVASYGTDFYYWGQGTQVTVSS,high polyreactivity
11,QVQLVESGGGLVQAGGSLRLSCAASGNIFDRYVMGWYRQAPGKERELVAAISVSGGSTYYADSVKGRFTISRDNAKNTVYLQMNSLKPEDTAVYYCAAHSRLINWYDYWGQGTQVTVSS,high polyreactivity
12,QVQLVESGGGLVQAGGSLRLSCAASGNIFDVYAMGWYRQAPGKERELVAAISRSGSSTYYADSVKGRFTISRDNAKNTVYLQMNSLKQEDTAVYYCAAKISLGQRTYYYWGQGTQVTVSS,high polyreactivity
13,QVQLVESGGGLVQAGGSLRLSCAASGNIFESYGMGGYRQAPGKERELVAAISFSGDSTYYADSVKGRFTISRDNAKNSVYLQMNSLKPEDTAVYYCATDVGYVYGYYYWGQGTQVTVSS,low polyreactivity
14,QVQLVESGGGLVQAGGSLRLSCAASGNIFEYYAMGWYRKAPGKERELVATITSGGSTNYADSVKGRFTISRDNAKNTVYLQMNSLKPEDTAVYYCNADIISVSVYYFIVEYDYWGQGTQVTVSS,low polyreactivity
15,QVQLVESGGGLVQAGGSLRLSCAASGNIFFSNAMGWYRQAPGKERELVASISQSGGSTYYADSVKGRFTISRDNAKNTVYLQMNSLKPEDTAVYYCAATQVRRGPAWGRDYWGQGTQVTVSS,low polyreactivity
16,QVQLVESGGGLVQAGGSLRLSCAASGNIFGQNAMGWYRQAPGKERELVAAISSNGGRTYYADSVKGRFTISRDNAKNTVYLQMNSLKPEDTAVYYCAAEAVYAYEWYYYWGQGTQVTVSS,high polyreactivity

row,Sequence,polyreactivity (PSR sort gate)
1,QVQLVESGGGLVQAGGSLRLSCAASGNIFKGHVMGSYRKAPGKERELVAAISRSGGYTYYAVSVKGRFTISRDNAKNTVYLQMNSLKPADTAVYYCAAGRRLVRVVGGDYYGRYVYWGQGTQVTLSS,high polyreactivity
2,QVQLVESGGGLVQAGGSLRLSCAASGNIFLDYAMGWYRQAPGKEREWVAAITSGGSTNYADSVKGRFTISRDNAKNTVYLQMNSLKPEDTAVYYCNKDVWDGYDWPEFDYWGQGTQVTVSS,low polyreactivity
3,QVQLVESGGGLVQAGGSLRLSCAASGNIFLRYAMGWYRQAPGKERELVAAISYSGGGSTYYADSVKGRFTISRDNAKNTVYLQMNSLKPEDTAVYYCAKVLTSRTQFFDYDYWGQGTQVTVSS,low polyreactivity
4,QVQLVESGGGLVQAGGSLRLSCAASGNIFLYYAMGWSRQAPGKERELVADIDSSGASTYYADSVKGRFTISRDNAKNTVYLQMNSLKPEDTAVYYCAAEFHWWYAGYDYGYWGQGTQVTVSS,low polyreactivity
5,QVQLVESGGGLVQAGGSLRLSCAASGNIFLYYAMGWYRQAPGKERELVARIDSGGSTYYADSVKGRFTISRDNAKNTVYLQMNSLKPEDTAVYYCATDEGTVGGQQLRPLMDYWGQGTQVTVSS,low polyreactivity
6,QVQLVESGGGLVQAGGSLRLSCAASGNIFNTNARGWYRQAPGKDTELVAAISWNTGSTYADSVKGRFTISRDNAKKTVDLPMNSLKPEDTAVYYCAADRSHAYYRKNRVDYWGQGTQVTVSS,low polyreactivity
7,QVQLVESGGGLVQAGGSLRLSCAASGNIFPDYAMGWYRQAPGKERELVAAISTSGSSTYYADSVKGRFTISRDNAKNNDYLQMNSLKPEDTAVYYCNAYRNADYVYWGQGTQVTVSS,low polyreactivity
8,QVQLVESGGGLVQAGGSLRLSCAASGNIFPRYAMGLYRQAPGKERELVAAITWRTSSTYYADSVKGRFTISRDNAKNTVYLQMNSLKPEDTAVYFCAKTSSRIAGEYWGQGTQVTVSS,low polyreactivity
9,QVQLVESGGGLVQAGGSLRLSCAASGNIFPYNAMGWYRQAPGKERELVASISSGGSTNYADSVKGRFTISRDNAKNTVYLQMNSLKPEDTAVYYCAKDQSVLSRGGTYDYWGQGTQVTVSS,low polyreactivity
10,QVQLVESGGGLVQAGGSLRLSCAASGNIFQAYAMGWSRQAPGKERELVATIRTYADYVKGRFTISRDNAKNTVYLQMNSLKPEDTAVYYCAAQNAMYYDSYSGYDSWGQGTQVTVSS,low polyreactivity
11,QVQLVESGGGLVQAGGSLRLSCAASGNIFRINAMGWYRQAPGKERELVAAISRSVGSTYADSVKGRFTISRDNAKNTVYLQMNSLKPEDTAVYYCNARGRTQQRWVDYWGQGTQVTVSS,high polyreactivity
12,QVQLVESGGGLVQAGGSLRLSCAASGNIFRPYTMGWYRQAPGKERELVARISSGGSTNYADSVKGRFTISRDNGKYTDYFQLNSLKPEVTAVYYWSKRYGTVLSRYGYLGQGTQVTVSS,high polyreactivity
13,QVQLVESGGGLVQAGGSLRLSCAASGNIFSDNTMGWYRQAPGKERELVAVITSGTSTSYADSVKGRFTISRDNAKNTEYFQMNSLKPEDTAVSYAARTGQYKTYGEYDYWGQGTQVTVSS,low polyreactivity
14,QVQLVESGGGLVQAGGSLRLSCAASGNIFSFYTMGWYRQAPGKERELVAAISWSGTSTYYADSVKGRFTISRDNAKNTVYLQMNSLKPEDTAVYYCAAVRRISRYDYWGQGTQVTVSS,high polyreactivity
15,QVQLVESGGGLVQAGGSLRLSCAASGNIFSINAMGWYRQAPGKERELVAAISWSGGSTYYADSVKGRFTISRDNAKNTVYLQMNSLKPEDTAVYYCAADVYYLGYYEYYYWGQGTQVTVSS,high polyreactivity
16,QVQLVESGGGLVQAGGSLRLSCAASGNIFSTYAMGWDRQAPGKERELVAAISSRGTSTYYADSVKGRFTISRDNAKNTVYLQMNSLKPEDTAVYYCNAVIALQLDYWGQGTQVTVSS,high polyreactivity
